Results: patent US20230235013A1 (MABSOLVE, published 2023)
Residue numbers refer to the chain shown, from its start. Names may count otherwise. Values belong to the binder of their own block, whether it stands above or below them.

Tests used:
[1] = biological target: T1, Histidine-tagged recombinant human FcγRI (CD64) (human, UniProt P12314 16-288); assay: SPR, culture supernatant, captured His-FcγRI;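 note: biacore T200 SPR at 25 °C, anti-His capture, supernatants of HEK293 cells expressing IgG1 Fc variants injected 1 min, reference-subtracted response read 55 s after injection start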
T1 construct: bought; also called Sino Biological Cat. No. 12056-H08H

[2] = biological target: T2, Histidine-tagged recombinant human FcγRI (CD64) (human, UniProt P12314 16-288, limits assumed); assay: SPR, His-FcγRI captured; Expt 3;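 note: biacore T200 SPR at 25 °C, Fc-variant antibodies at 100 µg/mL flowed 1 min over anti-His-captured FcγRI, signal taken just before injection end minus a buffer blank cycle; antibody analyte injected at 100 µg/mL for 1 min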
T2 construct: bought
Method: (§1) Binding analysis was carried out by surface plasmon resonance at 25° C. using a Biacore® T200 instrument with Biacore® T200 control software. The sample compartment was held at 5° C. The running buffer (HBS-EP+) consisted of 0.01 M HEPES pH 7.4, containing 0.15 M NaCl, 3 mM EDTA, and 0.05% v/v Surfactant P20. Methods were run using the manufacturer's standard method wizards as described in the Biacore® T200 Instrument Handbook.
(§2) The cell was activated by treatment with EDC/NHS for 7 min. The antibody was diluted to 10 μg/mL in 10 mM sodium acetate pH 5.0 and injected for 7 min at 5 μL/min. The flow cell was deactivated by injection of 1M ethanolamine for 7 min. This process was repeated in the absence of anti-his antibody on a separate flow cell to generate a reference surface. […] Samples of purified antibodies comprising variant Fc regions (1 mg/mL in PBS) were diluted with running buffer to 100 μg/mL and were injected for 1 min at 30 μL/min and allowed to disassociate for 2 min. Between each cycle, the chip was regenerated by injection of 10 mM glycine pH 3.0 for 0.5 min at a flow rate of 30 μL/min and recharged with a fresh injection of FcγRI. At the beginning of each experiment, three blank cycles were run, with buffer alone being injected instead of test sample. The average SPR signal (relative to the reference cell) was measured in a window approximately 8 to 13 seconds before the injection of test sample (baseline) and approximately 3 to 8 seconds before the end of injection (response). The response of the third of the blank (buffer) samples was subtracted from the response of each test sample in order to allow for any dissociation of the bound FcγRI giving a corrected response for each test sample. The whole experiment was repeated three times with the test samples being analysed in different orders each time.

[3] = biological target: T2, Histidine-tagged recombinant human …; assay: SPR, His-FcγRI captured; Expt 1;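 note: SPR at 25 °C on anti-His antibody chip capturing FcγRI, Fc-variant antibodies injected at 100 µg/mL for 1 min, signal near end of injection minus buffer blank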
[4] = biological target: T2, Histidine-tagged recombinant human …; assay: SPR, His-FcγRI captured; mean;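 note: biacore T200 SPR at 25 °C, anti-His surface capturing FcγRI, Fc-variant antibodies injected at 100 µg/mL for 1 min, signal near injection end minus third buffer blank, three repeats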
Method: as §1, §2

[5] = biological target: T2, Histidine-tagged recombinant human …; assay: SPR, His-FcγRI captured; Expt 2;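 note: biacore T200 SPR at 25 °C, Fc-variant antibodies at 100 µg/mL flowed 1 min over anti-His-captured receptor, signal read near injection end minus third buffer blank; antibody analyte injected at 100 µg/mL for 1 min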

Mean binding response [1]: 18.9 RU
B1: anti-CD20 human IgG1 L234Q/L235D/G236R (antibody)
heavy: QVQLQQPGAELVKPGASVKMSCKASGYTFTSYNMHWVKQTPGRGLEWIGAIYPGNGDTSYNQKFKGKATLTADKSSSTAYMQLSSLTSEDSAVYYCARSTYYGGDWYFNVWGAGTTVTVSSASTKGPSVFPLAPSSKSTSGGTAALGCLVKDYFPEPVTVSWNSGALTSGVHTFPAVLQSSGLYSLSSVVTVPSSSLGTQTYICNVNHKPSNTKVDKKVEPKSCDKTHTCPPCPAPEQDRGPSVFLFPPKPKDTLMISRTPEVTCVVVDVSHEDPEVKFNWYVDGVEVHNAKTKPREEQYNSTYRVVSVLTVLHQDWLNGKEYKCKVSNKALPAPIEKTISKAKGQPREPQVYTLPPSRDELTKNQVSLTCLVKGFYPSDIAVEWESNGQPENNYKTTPPVLDSDGSFFLYSKLTVDKSRWQQGNVFSCSVMHEALHNHYTQKSLSLSPGK
light: QIVLSQSPAILSASPGEKVTMTCRASSSVSYIHWFQQKPGSSPKPWIYATSNLASGVPVRFSGSGSGTSYSLTISRVEAEDAATYYCQQWTSNPPTFGGGTKLEIKRTVAAPSVFIFPPSDEQLKSGTASVVCLLNNFYPREAKVQWKVDNALQSGNSQESVTEQDSKDSTYSLSSTLTLSKADYEKHKVYACEVTHQGLSSPVTKSFNRGEC
notes: also called 2-28; copies: 2 + 2

Corrected response (RU) [2]: 4.3 RU
Corrected response (RU), Mean [4]: 2.4 RU
Corrected response (RU) [3]: 0.7 RU
B4: anti-CD20 human IgG1 L234S/L235V/G236R (antibody)
heavy: B1 heavy with Q238S, D239V
light: B1 light
notes: also called 2-53

Corrected response (RU) [2]: 5.4 RU
Corrected response (RU), Mean [4]: 3.9 RU
Corrected response (RU) [5]: 3.6 RU
B5: anti-CD20 human IgG1 L234T/L235V/G236R (antibody)
heavy: B1 heavy with Q238T, D239V
light: B1 light
notes: also called 2-64

Corrected response (RU) [2]: 10.7 RU
Corrected response (RU), Mean [4]: 5.2 RU
Corrected response (RU) [5]: 3.9 RU
B6: anti-CD20 human IgG1 L234R/G236R (antibody)
heavy: not shown
light: B1 light
notes: also called 2-41

Mean binding response [1]: 17.2 RU
B7: anti-CD20 human IgG1 L234R/L235R/G236R (antibody)
heavy: B1 heavy with Q238R, D239R
light: B1 light
notes: also called 2-43; copies: 2 + 2

Corrected response (RU) [3]: 156 RU
B9: anti-CD20 human IgG1 L234T/G236R (antibody)
heavy: not shown
light: B1 light
notes: also called 2-59; 1-159

Mean binding response [1]: 20.1 RU
B11: anti-CD20 human IgG1 L234Q/L235R/G236R (antibody)
heavy: B1 heavy with D239R
light: B1 light
notes: also called 2-32; copies: 2 + 2

Corrected response (RU) [5]: 125 RU
B12: anti-CD20 human IgG1 L235G/G236R (antibody)
heavy: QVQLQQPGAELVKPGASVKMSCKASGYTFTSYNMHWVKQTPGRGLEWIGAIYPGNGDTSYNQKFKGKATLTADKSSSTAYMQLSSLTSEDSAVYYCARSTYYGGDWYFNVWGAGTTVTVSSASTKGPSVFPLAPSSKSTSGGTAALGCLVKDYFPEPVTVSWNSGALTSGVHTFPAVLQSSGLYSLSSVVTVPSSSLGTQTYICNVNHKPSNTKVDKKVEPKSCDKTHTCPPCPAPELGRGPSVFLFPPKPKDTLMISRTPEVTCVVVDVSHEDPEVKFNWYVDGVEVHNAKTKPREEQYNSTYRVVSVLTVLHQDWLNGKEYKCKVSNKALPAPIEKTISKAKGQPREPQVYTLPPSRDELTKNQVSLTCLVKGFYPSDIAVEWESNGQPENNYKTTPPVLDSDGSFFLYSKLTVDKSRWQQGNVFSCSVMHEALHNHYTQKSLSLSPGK
light: B1 light
notes: also called 2-83

Corrected response (RU) [2]: 7.3 RU
Corrected response (RU) [3]: -1 RU
B15: anti-CD20 human IgG1 L234R/L235Q/G236R (antibody)
heavy: B1 heavy with Q238R, D239Q
light: B1 light
notes: also called 2-42

Corrected response (RU) [2]: 1.4 RU
B17: anti-CD20 human IgG1 L234Q/L235T/G236R (antibody)
heavy: B1 heavy with D239T
light: B1 light
notes: also called 1-120

Corrected response (RU) [2]: 2510 RU
B20: anti-CD20 human IgG1 L235V/F243L/R292P/Y300L/P396L (antibody)
heavy: B1 heavy with Q238L, D239V, R240G, F247L, R296P, Y304L, P400L
light: B1 light
notes: also called 2-72

More lines, now with the values behind:

B2: anti-CD20 human IgG1 L234H/L235S/G236R (antibody)
heavy: B1 heavy with Q238H, D239S
light: B1 light
notes: also called 2-21; 1-74
Corrected response (RU) [2]: 5.9 RU
Corrected response (RU) [3]: 0.7 RU

B3: anti-CD20 human IgG1 L234A/L235T/G236R (antibody)
heavy: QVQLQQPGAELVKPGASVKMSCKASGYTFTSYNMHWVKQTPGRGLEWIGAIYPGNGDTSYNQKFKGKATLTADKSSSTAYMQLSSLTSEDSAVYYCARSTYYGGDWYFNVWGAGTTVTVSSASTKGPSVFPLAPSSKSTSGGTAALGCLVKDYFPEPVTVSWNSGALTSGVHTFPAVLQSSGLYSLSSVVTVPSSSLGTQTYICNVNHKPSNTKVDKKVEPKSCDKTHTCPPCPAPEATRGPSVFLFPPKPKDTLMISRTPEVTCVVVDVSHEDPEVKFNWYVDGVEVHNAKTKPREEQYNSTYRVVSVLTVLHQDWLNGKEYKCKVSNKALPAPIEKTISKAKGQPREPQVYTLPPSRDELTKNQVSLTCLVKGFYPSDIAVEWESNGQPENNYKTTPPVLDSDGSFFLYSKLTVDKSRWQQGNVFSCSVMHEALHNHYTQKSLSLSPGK
light: B1 light
notes: also called 2-5; 1-15
Corrected response (RU) [2]: 17.3 RU
Corrected response (RU), Mean [4]: 14.3 RU
Corrected response (RU) [5]: 11.2 RU
Corrected response (RU) [3]: 14.6 RU

B8: anti-CD20 human IgG1 L234D/L235H/G236R (antibody)
heavy: B1 heavy with Q238D, D239H
light: B1 light
notes: also called 2-6; 1-21
Corrected response (RU) [2]: 7.7 RU
Corrected response (RU), Mean [4]: 5.2 RU
Corrected response (RU) [5]: 3.8 RU
Corrected response (RU) [3]: 4.3 RU

B10: anti-CD20 human IgG1 L234A/G236R (antibody)
heavy: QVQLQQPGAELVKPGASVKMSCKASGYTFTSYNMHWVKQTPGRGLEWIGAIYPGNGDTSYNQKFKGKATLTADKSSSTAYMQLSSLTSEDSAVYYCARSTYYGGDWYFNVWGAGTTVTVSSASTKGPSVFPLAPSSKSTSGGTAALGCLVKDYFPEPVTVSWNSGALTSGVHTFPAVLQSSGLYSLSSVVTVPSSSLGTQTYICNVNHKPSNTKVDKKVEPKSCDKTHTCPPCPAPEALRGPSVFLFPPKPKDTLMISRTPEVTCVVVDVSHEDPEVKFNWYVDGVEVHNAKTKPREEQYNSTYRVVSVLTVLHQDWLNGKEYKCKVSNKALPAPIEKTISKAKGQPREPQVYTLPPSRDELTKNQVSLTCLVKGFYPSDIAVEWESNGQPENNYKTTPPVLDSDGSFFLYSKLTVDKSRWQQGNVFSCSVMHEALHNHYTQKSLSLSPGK
light: B1 light
notes: also called 1-9
Corrected response (RU) [2]: 74.7 RU
Corrected response (RU), Mean [4]: 70.4 RU
Corrected response (RU) [5]: 49.3 RU

B13: anti-CD20 human IgG1 L234D/G236R (antibody)
heavy: not shown
light: B1 light
notes: also called 2-8; 1-24
Corrected response (RU) [5]: 77.7 RU
Corrected response (RU) [3]: 135 RU

B14: anti-CD20 human IgG1 L234A/L235A/G236R (antibody)
heavy: not shown
light: B1 light
notes: also called 2-2; 1-2
Corrected response (RU) [2]: 5.2 RU
Corrected response (RU), Mean [4]: 4.4 RU
Corrected response (RU) [3]: 6.3 RU

B16: anti-CD20 human IgG1 L234D/L235S/G236R (antibody)
heavy: B1 heavy with Q238D, D239S
light: B1 light
notes: also called 2-10; 1-29
Corrected response (RU) [2]: 3.6 RU
Corrected response (RU), Mean [4]: 3.4 RU
Corrected response (RU) [5]: 2.7 RU

B18: anti-CD20 human IgG1 L234K/L235Q/G236R (antibody)
heavy: B1 heavy with Q238K, D239Q
light: B1 light
notes: also called 2-22; 1-87
Corrected response (RU) [2]: 5.8 RU
Corrected response (RU) [5]: 6.1 RU

B19: anti-CD20 human IgG1 G236R/L328R (antibody)
heavy: not shown
light: B1 light
notes: also called 2-68
Corrected response (RU) [2]: 65 RU
Corrected response (RU) [3]: 8.8 RU
